Laboratory results: patent US20220396614A1 (DEUTSCHES KREBSFORSCHUNGSZENTRUM, published 2022)

Biological target: Plasmodium falciparum circumsporozoite protein (PfCSP) on Pf NF54 salivary gland sporozoites (Plasmodium falciparum (NF54))
Experiment: cell-based or functional assay

B1: monoclonal antibody 2541 (antibody, V domains shown)
VH: QVQLVESGGGVVQPGRSLRLSCAASGFTFSSYGMHWVRQTTGKGLEWVAIIWHDGSKKYYADSVKGRLTISRDNSKNTLYLQMNSLRVEDTALYYCARVGDYSDFKYGAFDIWGQGTMVTVSS
VL: DIQMTQSPSTLSASVGDRVTITCRASQSISSWLAWYQQKPGKAPNLLIYKASTLESGVPSRFSGSGSGTEFTLTISSLQPDDFATYYCQQYNSYWTFGQGTRVEIK
  IC50, in vitro Pf-traversal inhibition assay: < 1 µg/mL
